Test results: the supplement of paper PMC10567573

B1: TRIM39 (parent)
chain: ERDFPCPVCRKTSRYRSLRPNRQL
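Also: lentivirally expressed fusions sorted by FACS into six bins by GFP to DsRed ratio, PSI derived from sequencing read proportions per bin multiplied by bin number.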

Variants of: B1
Experiment: protein stability index of a GFP-peptide fusion (GPS, HEK-293T) (PSI 1-6); higher = more stable
Conditions: c terminus: a fixed tail appended
With ERDFPCPVDRKTSRYRSLRPNRQL [C9D] the protein stability index was 4.01.
ERDFPCPVFRKTSRYRSLRPNRQL [C9F] showed a protein stability index of 2.45.
With ERDFPCPVARKTSRYRSLRPNRQL [C9A] the protein stability index was 3.79.
ERDFPMPVCRKTSRYRSLRPNRQL [C6M] showed a protein stability index of 3.1.
Variant ERDFPAPVCRKTSRYRSLRPNRQL [C6A] has a protein stability index of 2.69.
With ERDFPFPVCRKTSRYRSLRPNRQL [C6F] the protein stability index was 2.03.
Work on ERDFPTPVCRKTSRYRSLRPNRQL [C6T] yielded a protein stability index of 3.02.
Variant ERDFPIPVCRKTSRYRSLRPNRQL [C6I] has a protein stability index of 3.24.
ERDFPQPVCRKTSRYRSLRPNRQL [C6Q] gave a protein stability index of 3.24.
In the case of ERDFPWPVCRKTSRYRSLRPNRQL [C6W], the protein stability index is reported as 2.01.
With ERDFPSPVCRKTSRYRSLRPNRQL [C6S] the protein stability index was 3.17.
ERDFPYPVCRKTSRYRSLRPNRQL [C6Y] gave a protein stability index of 3.21.
For ERDFPLPVCRKTSRYRSLRPNRQL [C6L], the protein stability index was 3.19.
Work on ERDFPDPVCRKTSRYRSLRPNRQL [C6D] yielded a protein stability index of 3.74.
For ERDFPKPVCRKTSRYRSLRPNRQL [C6K], the protein stability index was 3.13.
In the case of ERDFPVPVCRKTSRYRSLRPNRQL [C6V], the protein stability index is reported as 3.23.
With ERDFPGPVCRKTSRYRSLRPNRQL [C6G] the protein stability index was 3.97.
Variant ERDFPHPVCRKTSRYRSLRPNRQL [C6H] has a protein stability index of 3.61.
ERDFWCPVCRKTSRYRSLRPNRQL [P5W] showed a protein stability index of 1.87.
For ERDFECPVCRKTSRYRSLRPNRQL [P5E], the protein stability index was 1.76.
Variant ERDFMCPVCRKTSRYRSLRPNRQL [P5M] has a protein stability index of 2.26.
Variant ERDFNCPVCRKTSRYRSLRPNRQL [P5N] has a protein stability index of 1.84.
Work on ERDFFCPVCRKTSRYRSLRPNRQL [P5F] yielded a protein stability index of 1.81.
With ERDFACPVCRKTSRYRSLRPNRQL [P5A] the protein stability index was 1.74.
Work on ERDFYCPVCRKTSRYRSLRPNRQL [P5Y] yielded a protein stability index of 2.
ERDFICPVCRKTSRYRSLRPNRQL [P5I] showed a protein stability index of 2.91.
ERDFHCPVCRKTSRYRSLRPNRQL [P5H] showed a protein stability index of 3.7.
In the case of ERDFTCPVCRKTSRYRSLRPNRQL [P5T], the protein stability index is reported as 2.93.
ERDFQCPVCRKTSRYRSLRPNRQL [P5Q] gave a protein stability index of 1.18.
ERDFDCPVCRKTSRYRSLRPNRQL [P5D] gave a protein stability index of 2.49.
With ERDFSCPVCRKTSRYRSLRPNRQL [P5S] the protein stability index was 2.04.
ERDFGCPVCRKTSRYRSLRPNRQL [P5G] showed a protein stability index of 1.67.
Variant ERDFCCPVCRKTSRYRSLRPNRQL [P5C] has a protein stability index of 2.9.
ERDFLCPVCRKTSRYRSLRPNRQL [P5L] showed a protein stability index of 3.
Variant ERDFVCPVCRKTSRYRSLRPNRQL [P5V] has a protein stability index of 2.29.
Variant ERDFKCPVCRKTSRYRSLRPNRQL [P5K] has a protein stability index of 2.72.
ERDKPCPVCRKTSRYRSLRPNRQL [F4K] gave a protein stability index of 2.86.
With ERDGPCPVCRKTSRYRSLRPNRQL [F4G] the protein stability index was 2.3.
ERDTPCPVCRKTSRYRSLRPNRQL [F4T] showed a protein stability index of 1.82.
In the case of ERDLPCPVCRKTSRYRSLRPNRQL [F4L], the protein stability index is reported as 2.1.
In the case of ERDHPCPVCRKTSRYRSLRPNRQL [F4H], the protein stability index is reported as 3.14.
For ERDDPCPVCRKTSRYRSLRPNRQL [F4D], the protein stability index was 2.93.
For ERDQPCPVCRKTSRYRSLRPNRQL [F4Q], the protein stability index was 2.13.
With ERDIPCPVCRKTSRYRSLRPNRQL [F4I] the protein stability index was 2.35.
Work on ERDNPCPVCRKTSRYRSLRPNRQL [F4N] yielded a protein stability index of 2.89.
With ERDRPCPVCRKTSRYRSLRPNRQL [F4R] the protein stability index was 2.09.
With ERDYPCPVCRKTSRYRSLRPNRQL [F4Y] the protein stability index was 2.84.
With ERDEPCPVCRKTSRYRSLRPNRQL [F4E] the protein stability index was 2.02.
For ERDVPCPVCRKTSRYRSLRPNRQL [F4V], the protein stability index was 2.39.
ERDMPCPVCRKTSRYRSLRPNRQL [F4M] showed a protein stability index of 2.48.
ERDCPCPVCRKTSRYRSLRPNRQL [F4C] gave a protein stability index of 2.12.
ERDPPCPVCRKTSRYRSLRPNRQL [F4P] showed a protein stability index of 2.41.
For ERDSPCPVCRKTSRYRSLRPNRQL [F4S], the protein stability index was 1.81.
Variant ERDFPCPCCRKTSRYRSLRPNRQL [V8C] has a protein stability index of 2.66.
In the case of ERDFPCPFCRKTSRYRSLRPNRQL [V8F], the protein stability index is reported as 1.41.
With ERDFPCPACRKTSRYRSLRPNRQL [V8A] the protein stability index was 2.89.
With ERDFPCPYCRKTSRYRSLRPNRQL [V8Y] the protein stability index was 1.95.
ERDFPCPRCRKTSRYRSLRPNRQL [V8R] showed a protein stability index of 3.23.
In the case of ERDFPCPNCRKTSRYRSLRPNRQL [V8N], the protein stability index is reported as 2.43.
Work on ERDFPCPMCRKTSRYRSLRPNRQL [V8M] yielded a protein stability index of 2.31.
Variant ERDFPCPICRKTSRYRSLRPNRQL [V8I] has a protein stability index of 2.38.
In the case of ERDFPCPKCRKTSRYRSLRPNRQL [V8K], the protein stability index is reported as 2.68.
With ERDFPCPQCRKTSRYRSLRPNRQL [V8Q] the protein stability index was 2.35.
ERDFPCPPCRKTSRYRSLRPNRQL [V8P] showed a protein stability index of 3.91.
ERDFPCPTCRKTSRYRSLRPNRQL [V8T] gave a protein stability index of 3.06.
ERDFPCPSCRKTSRYRSLRPNRQL [V8S] showed a protein stability index of 3.84.
With ERDFPCPHCRKTSRYRSLRPNRQL [V8H] the protein stability index was 2.34.
Variant ERDFPCPLCRKTSRYRSLRPNRQL [V8L] has a protein stability index of 1.96.
ERDFPCPGCRKTSRYRSLRPNRQL [V8G] gave a protein stability index of 2.75.
ERDFPCPECRKTSRYRSLRPNRQL [V8E] showed a protein stability index of 1.72.
With ERDFPCPDCRKTSRYRSLRPNRQL [V8D] the protein stability index was 2.2.
Work on ERTFPCPVCRKTSRYRSLRPNRQL [D3T] yielded a protein stability index of 1.84.
With ERSFPCPVCRKTSRYRSLRPNRQL [D3S] the protein stability index was 2.64.
With ERVFPCPVCRKTSRYRSLRPNRQL [D3V] the protein stability index was 2.48.
In the case of ERWFPCPVCRKTSRYRSLRPNRQL [D3W], the protein stability index is reported as 2.15.
For ERRFPCPVCRKTSRYRSLRPNRQL [D3R], the protein stability index was 1.99.
With ERYFPCPVCRKTSRYRSLRPNRQL [D3Y] the protein stability index was 1.42.
Variant ERDFPCYVCRKTSRYRSLRPNRQL [P7Y] has a protein stability index of 2.09.
For ERDFPCQVCRKTSRYRSLRPNRQL [P7Q], the protein stability index was 1.96.
Variant ERDFPCNVCRKTSRYRSLRPNRQL [P7N] has a protein stability index of 2.19.
Work on ERDFPCIVCRKTSRYRSLRPNRQL [P7I] yielded a protein stability index of 2.75.
With ERDFPCTVCRKTSRYRSLRPNRQL [P7T] the protein stability index was 1.85.
ERDFPCDVCRKTSRYRSLRPNRQL [P7D] showed a protein stability index of 2.43.
With ERDFPCGVCRKTSRYRSLRPNRQL [P7G] the protein stability index was 2.38.
For ERDFPCAVCRKTSRYRSLRPNRQL [P7A], the protein stability index was 2.2.
ERDFPCSVCRKTSRYRSLRPNRQL [P7S] showed a protein stability index of 2.22.
With ERDFPCRVCRKTSRYRSLRPNRQL [P7R] the protein stability index was 2.88.
ERDFPCHVCRKTSRYRSLRPNRQL [P7H] showed a protein stability index of 3.7.
Work on ERDFPCLVCRKTSRYRSLRPNRQL [P7L] yielded a protein stability index of 2.37.
Work on ERDFPCFVCRKTSRYRSLRPNRQL [P7F] yielded a protein stability index of 1.8.
For ERDFPCKVCRKTSRYRSLRPNRQL [P7K], the protein stability index was 2.6.
Variant ERDFPCWVCRKTSRYRSLRPNRQL [P7W] has a protein stability index of 1.96.
With ERDFPCCVCRKTSRYRSLRPNRQL [P7C] the protein stability index was 1.94.
Work on ERDFPCMVCRKTSRYRSLRPNRQL [P7M] yielded a protein stability index of 2.17.
